Reference: US20240209076A1 (KODIAK SCIENCES, published 2024)
Substitutions are numbered along the chain they refer to. Numbers in names are those of the source. Values belong to the binder of their own block, whether it stands above or below them.

Tests used:
recombinant human IL-6 [1] = biological target: T1, recombinant human IL-6 (human, UniProt P05231 30-212); assay: SPR Biacore, purified Ab on Protein A chip, IL-6 analyte, 37 C
T1 construct: Bought protein
Procedure: (§1) Antibodies were captured on a Protein A chip (GE) by injecting 1:20 dilution of cell supernatant at 10 μL/min for 60 seconds. […] The sensor chip was regenerated by a 60 seconds injection of 10 mM Glycine pH 1.7 at flow rate of 50 μL/min. […] For this setup, 1 μg/mL of purified antibody was injected over a Protein A chip at 10 μL/min for 25-28 seconds. Data analysis for supernatant and purified samples were performed using BIAevaluation software (GE). All sensorgrams were double reference subtracted and fit using a 1:1 Langmuir binding model.

recombinant human IL-6 [2] = biological target: T1, recombinant human IL-6; assay: SPR Biacore, supernatant Ab on Protein A chip, IL-6 analyte, 25 C
Procedure: as §1

T1 sequence (P05231 30-212 limits assumed): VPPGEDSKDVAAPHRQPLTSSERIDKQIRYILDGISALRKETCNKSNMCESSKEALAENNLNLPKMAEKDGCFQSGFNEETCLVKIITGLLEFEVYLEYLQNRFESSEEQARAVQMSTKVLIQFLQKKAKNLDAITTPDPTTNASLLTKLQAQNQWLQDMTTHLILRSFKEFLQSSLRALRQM

B1: anti-IL-6 antibody, heavy chain variant I (M34I, G66D, I108V) / light chain variant III (M32L, M50D, N52S, M88Q) (antibody, human IgG1, V domains shown)
VH: EVQLVESGGGLVQPGGSLRLSCAASGFTFSPFAISWVRQAPGKGLEWVAKISPGGSWTYYSDTVTDRFTFSLDTSKSTAYLQMNSLRAEDTAVYYCARQLWGYYALDVWGQGTLVTVSS
VL: DIQLTQSPSSLSASVGDRVTITCSASISVSYLYWYQQKPGKAPKLLIYDDSSLASGVPSRFSGSGSGTDFTLTISSLQPEDFATYYCQQWSGYPYTFGQGTKVEIK
notes: also called M34I, G66D, I108V/ M32L, M50D, N52S, M88Q; I/III
Kd (recombinant human IL-6 [1]): 0.625 nM
koff (recombinant human IL-6 [1]): 0.000702 s⁻¹
kon (recombinant human IL-6 [1]): 1.22e+06 M⁻¹ s⁻¹
Kd (recombinant human IL-6 [2]): 0.552 nM
koff (recombinant human IL-6 [2]): 0.0002 s⁻¹

B2: anti-IL-6 antibody, light chain M88A (heavy chain WT) (antibody, V domains shown)
VH: B1 VH with I34M, D66G, V108I
VL: B1 VL with L32M, D50M, S52N, Q88A
notes: See note of m2; also called WT / M88A
Kd (recombinant human IL-6 [1]): 2.25 nM
koff (recombinant human IL-6 [1]): 0.00132 s⁻¹
kon (recombinant human IL-6 [1]): 586000 M⁻¹ s⁻¹
Kd (recombinant human IL-6 [2]): 0.282 nM
koff (recombinant human IL-6 [2]): 0.000127 s⁻¹
kon (recombinant human IL-6 [2]): 451000 M⁻¹ s⁻¹

B3: anti-IL-6 antibody, heavy chain variant II (M34W, G66D, I108V) / light chain variant IV (M32L, M50A, N52S, M88Q) (antibody, V domains shown)
VH: B1 VH with I34W
VL: B1 VL with D50A
notes: See note of m39; also called M34W, G66D, I108V/ M32L, M50A, N52S, M88Q; II/IV
Kd (recombinant human IL-6 [1]): 0.615 nM
koff (recombinant human IL-6 [1]): 0.000652 s⁻¹
kon (recombinant human IL-6 [1]): 1.08e+06 M⁻¹ s⁻¹
Kd (recombinant human IL-6 [2]): 0.297 nM
koff (recombinant human IL-6 [2]): 0.00117 s⁻¹
kon (recombinant human IL-6 [2]): 559000 M⁻¹ s⁻¹

B4: anti-IL-6 antibody, light chain M88V (heavy chain WT) (antibody, V domains shown)
VH: B1 VH with I34M, D66G, V108I
VL: B1 VL with L32M, D50M, S52N, Q88V
notes: See note of m2; also called WT / M88V
Kd (recombinant human IL-6 [1]): 0.713 nM
koff (recombinant human IL-6 [1]): 0.000441 s⁻¹
kon (recombinant human IL-6 [1]): 619000 M⁻¹ s⁻¹
Kd (recombinant human IL-6 [2]): 0.239 nM
koff (recombinant human IL-6 [2]): 0.000107 s⁻¹
kon (recombinant human IL-6 [2]): 448000 M⁻¹ s⁻¹

B9: anti-IL-6 antibody, light chain T96L (heavy chain WT) (antibody, V domains shown)
VH: B1 VH with I34M, D66G, V108I
VL: B1 VL with L32M, D50M, S52N, Q88M, T96L
notes: See note of m2; also called WT / T96L
Kd (recombinant human IL-6 [1]): 0.901 nM
koff (recombinant human IL-6 [1]): 0.000795 s⁻¹
kon (recombinant human IL-6 [1]): 882000 M⁻¹ s⁻¹
Kd (recombinant human IL-6 [2]): 0.259 nM
koff (recombinant human IL-6 [2]): 0.000135 s⁻¹
kon (recombinant human IL-6 [2]): 520000 M⁻¹ s⁻¹

B10: anti-IL-6 antibody, heavy chain variant I (M34I, G66D, I108V) / light chain variant V (M32L, M50D, M88Q) (antibody, V domains shown)
VH: B1 VH
VL: B1 VL with S52N
notes: See note of m39; also called M34I, G66D, I108V/ M32L, M50D, M88Q; I/V
Kd (recombinant human IL-6 [1]): 0.602 nM
koff (recombinant human IL-6 [1]): 0.00073 s⁻¹
Kd (recombinant human IL-6 [2]): 0.386 nM

These reach a lower Kd (recombinant human IL-6 [1]). Values come first.

Kd (recombinant human IL-6 [1]): 0.311 nM
koff (recombinant human IL-6 [1]): 0.000464 s⁻¹
kon (recombinant human IL-6 [1]): 1.49e+06 M⁻¹ s⁻¹
Kd (recombinant human IL-6 [2]): 0.138 nM
koff (recombinant human IL-6 [2]): 0.000112 s⁻¹
kon (recombinant human IL-6 [2]): 806000 M⁻¹ s⁻¹
B5: anti-IL-6 antibody, light chain M50D (heavy chain WT) (antibody, V domains shown)
VH: B1 VH with I34M, D66G, V108I
VL: B1 VL with L32M, S52N, Q88M
notes: See note of m2; also called WT / M50D

Kd (recombinant human IL-6 [1]): 0.507 nM
koff (recombinant human IL-6 [1]): 0.000551 s⁻¹
kon (recombinant human IL-6 [1]): 1.19e+06 M⁻¹ s⁻¹
Kd (recombinant human IL-6 [2]): 0.37 nM
koff (recombinant human IL-6 [2]): 0.000173 s⁻¹
B6: anti-IL-6 antibody, heavy chain variant II (M34W, G66D, I108V) / light chain variant III (M32L, M50D, N52S, M88Q) (antibody, V domains shown)
VH: B1 VH with I34W
VL: B1 VL
notes: See note of m39; also called M34W, G66D, I108V/ M32L, M50D, N52S, M88Q; II/III

Kd (recombinant human IL-6 [1]): 0.556 nM
koff (recombinant human IL-6 [1]): 0.000757 s⁻¹
kon (recombinant human IL-6 [1]): 1.15e+06 M⁻¹ s⁻¹
Kd (recombinant human IL-6 [2]): 0.323 nM
koff (recombinant human IL-6 [2]): 0.000214 s⁻¹
kon (recombinant human IL-6 [2]): 462000 M⁻¹ s⁻¹
B7: anti-IL-6 antibody, heavy chain variant I (M34I, G66D, I108V) / light chain variant IV (M32L, M50A, N52S, M88Q) (antibody, V domains shown)
VH: B1 VH
VL: B1 VL with D50A
notes: See note of m39; also called M34I, G66D, I108V/ M32L, M50A, N52S, M88Q; I/IV

Kd (recombinant human IL-6 [1]): 0.465 nM
koff (recombinant human IL-6 [1]): 0.000627 s⁻¹
kon (recombinant human IL-6 [1]): 1.34e+06 M⁻¹ s⁻¹
Kd (recombinant human IL-6 [2]): 0.231 nM
koff (recombinant human IL-6 [2]): 0.000271 s⁻¹
kon (recombinant human IL-6 [2]): 700000 M⁻¹ s⁻¹
B8: anti-IL-6 antibody, heavy chain variant II (M34W, G66D, I108V) / light chain variant V (M32L, M50D, M88Q) (antibody, V domains shown)
VH: B1 VH with I34W
VL: B1 VL with S52N
notes: See note of m39; also called M34W, G66D, I108V/ M32L, M50D, M88Q; II/V
